Assays:
[1] = molecular target: T1, VPS4A MIT domain, recombinant (His6-VPS4 MIT) (UniProt Q9UN37 2-80); test: SPR
T1 sequence (looked up): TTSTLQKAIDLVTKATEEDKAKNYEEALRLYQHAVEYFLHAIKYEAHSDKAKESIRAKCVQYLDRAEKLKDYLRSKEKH

[2] = molecular target: T2, human spastin MIT domain (residues 112-195), purified (human, UniProt Q9UBP0-1 112-195); test: SPR
T2 sequence (looked up): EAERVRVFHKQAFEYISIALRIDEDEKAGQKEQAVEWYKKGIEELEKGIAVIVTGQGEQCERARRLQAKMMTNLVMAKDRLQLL

Kd [1]: 33 µM
Kd [2]: 12 µM
B1: polyhistidine-tagged CHMP1B-CTR (residues 126-199), wild type (domain or fragment, human, UniProt Q7LBR1 126-199, looked up)
chain: DVQTQQMEDTMSSTTTLTTPQNQVDMLLQEMADEAGLDLNMELPQGQTGSVGTSVASAEQDELSQRLARLRDQV

Source: publication PMC2593743 (Nature structural & molecular biology, 2008)
